Residue numbers refer to the chain shown, from its start.
Columns and labels:
Details in all cases: both partners purified
vinculin D1D2 V367D = target: T1, vinculin D1D2 V367D (human, UniProt P18206 1-484, V367D); test: native gel or EMSA; CN-PAGE: D1D2 variant (20 μM) with increasing molar ratio of aVBD, 60 min at 21°C; 7.5% (Fig 2, methods) or 10% (Fig 3, S3) native polyacrylamide gel, Coomassie staining, scanning densitometry normalised to monomeric D1D2 without aVBD; rates from linear fits against the aVBD:D1D2 ratio
T1 construct: vinculin, human, head subdomains D1 and D2, residues 1-484, with V367D
T1 sequence (looked up): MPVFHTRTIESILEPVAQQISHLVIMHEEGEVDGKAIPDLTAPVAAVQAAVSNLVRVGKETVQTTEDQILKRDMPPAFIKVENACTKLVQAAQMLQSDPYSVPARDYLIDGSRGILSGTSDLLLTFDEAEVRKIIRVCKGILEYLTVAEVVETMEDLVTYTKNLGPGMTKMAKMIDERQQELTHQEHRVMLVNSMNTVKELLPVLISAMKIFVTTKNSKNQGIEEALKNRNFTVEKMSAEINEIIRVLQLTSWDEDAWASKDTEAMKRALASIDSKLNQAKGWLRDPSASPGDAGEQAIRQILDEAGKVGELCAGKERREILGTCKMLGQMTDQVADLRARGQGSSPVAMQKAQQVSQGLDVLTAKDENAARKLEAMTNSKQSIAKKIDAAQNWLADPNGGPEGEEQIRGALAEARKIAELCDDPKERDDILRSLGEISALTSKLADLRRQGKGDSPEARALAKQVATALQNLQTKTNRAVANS

vinculin D1D2 K386D = target: T2, vinculin D1D2 K386D (human, UniProt P18206 1-484, K386D); test: as above
T2 construct: vinculin, human, head subdomains D1 and D2, residues 1-484, with K386D
T2 sequence (looked up): T1 sequence (looked up) with D367V, K386D

vinculin D1D2 E143K = target: T3, vinculin D1D2 E143K (human, UniProt P18206 1-484, E143K); test: as above
T3 construct: vinculin, human, head subdomains D1 and D2, residues 1-484, with E143K
T3 sequence (looked up): T1 sequence (looked up) with E143K, D367V

vinculin D1D2 N393D = target: T4, vinculin D1D2 N393D (human, UniProt P18206 1-484, N393D); test: as above
T4 construct: vinculin, human, head subdomains D1 and D2, residues 1-484, with N393D
T4 sequence (looked up): T1 sequence (looked up) with D367V, N393D

vinculin D1D2 K139E = target: T5, vinculin D1D2 K139E (human, UniProt P18206 1-484, K139E); test: as above
T5 construct: vinculin, human, head subdomains D1 and D2, residues 1-484, with K139E
T5 sequence (looked up): T1 sequence (looked up) with K139E, D367V

vinculin D1D2 D389R = target: T6, vinculin D1D2 D389R (human, UniProt P18206 1-484, D389R); test: as above
T6 construct: vinculin, human, head subdomains D1 and D2, residues 1-484, with D389R
T6 sequence (looked up): T1 sequence (looked up) with D367V, D389R

[1] = target: T7, vinculin D1D2 (vinculin residues 1–484) (human, UniProt P18206 1-484); test: as above
T7 construct: vinculin, human, head subdomains D1 and D2, residues 1-484; Valencia-Gallardo et al, 2023) for the plasmid and the purification; also called WT; parental D1D2
T7 sequence (looked up): T1 sequence (looked up) with D367V

[2] = target: T7, vinculin D1D2 (vinculin residues 1–484); test: native gel or EMSA; band A′ cut from the CN-PAGE gel, run in a second dimension on SDS–PAGE, Coomassie staining and scanning densitometry of D1D2 and aVBD (N = 2)

B1: IpaA domain containing all three IpaA VBS1-3 (aVBD) (domain or fragment)
chain: GDTYLTRETIFEASKKVTNSLSNLISLIGTKSGTQERELQEKSKDITKSTTEHRINNKLKVTDANIRNYVTETNADTIDKNHAIYEKAKEVSSALSKVLSKIDDTSAELLTDDISDLKNNNDITAENNNIYKAAKDVTTSLSKVLKNINKD
notes: The plasmid is said to be described previously; also called A483; source: E. coli DH5-α, pGEX-4T2-aVBD, purified (GSTrap, thrombin on the column, SEC on Superdex 200)
- rate of monomer disappearance (vinculin D1D2 V367D): -0.88 AU^−1
- rate of monomer disappearance (vinculin D1D2 K386D): -1.29 AU^−1
- rate of monomer disappearance (vinculin D1D2 E143K): -0.88 AU^−1
- rate of monomer disappearance (vinculin D1D2 N393D): -1.32 AU^−1
- rate of monomer disappearance (vinculin D1D2 K139E): -1.42 AU^−1
- rate of monomer disappearance (vinculin D1D2 D389R): -1.06 AU^−1
- rate of monomer disappearance [1]: -1.06 AU^−1
- stoichiometry N [2]: 3.2 D1D2:aVBD molar ratio

From publication PMC11150655, “IpaA reveals distinct modes of vinculin activation during Shigella invasion and cell-matrix adhesion” (Life Science Alliance, 2024)
